Reference: article PMC9861546

Key:
[1] = molecular target: chimeric L1:P18I10 capsid protein (HPV16 L1 with the HIV-1 P18I10 peptide in the DE loop), VLPs (human papillomavirus type 16 | HIV-1) (UniProt P03101); experiment: cross-linking; disulfide cross-linking seen by non-reducing SDS-PAGE; VLPs in Laemmli sample buffer without or with 5% 2-mercaptoethanol, room temperature, 24 h; blot with anti-HPV16 L1 CAMVIR-1
[2] = molecular target: chimeric L1:T20 capsid protein (HPV16 L1 with the HIV-1 T20 peptide in the DE loop), VLPs (human papillomavirus type 16 | HIV-1) (UniProt P03101); experiment: as above

Row | Substance | percent of L1 disulfide bonded into dimers or pentamers [1] [%] | percent of L1 disulfide bonded into dimers or pentamers [2] [%]
1 | chimeric L1:P18I10 capsid protein (HPV16 L1 with the HIV-1 P18I10 peptide in the DE loop), VLPs (from UniProt P03101 1-129; P03101 137-505) | 70 | –
2 | chimeric L1:T20 capsid protein (HPV16 L1 with the HIV-1 T20 peptide in the DE loop), VLPs (from UniProt P03101 1-129; P03101 137-505) | – | 70
